B1: library; numbered along this chain (parent)
chain: MRKPRAAVGSGHRKQAASQEGRQKHAKNNSQAKPSACDGLARQPEEVVLQASVSSYHLFRDVAEVTAFRGSLLSWYDQEKRDLPWRRRAEDEMDLDRRAYAVWVSEVMLQQTQVATVINYYTGWMQKWPTLQDLASASLEEVNQLWAGLGYYSRGRRLQEGARKVVEELGGHMPRTAETLQQLLPGVGRYTAGAIASIAFGQATGVVDGNVARVLCRVRAIGADPSSTLVSQQLWGLAQQLVDPARPGDFNQAAMELGATVCTPQRPLCSQCPVESLCRARQRVEQEQLLASGSLSGSPDVEECAPNTGQCHLCLPPSEPWDQTLGVVNFPRKASRKPPREESSATCVLEQPGALGAQILLVQRPNSGLLAGLWEFPSVTWEPSEQLQRKALLQELQRWAGPLPATHLRHLGEVVHTFSHIKLTYQVYGLALEGQTPVTTVPPGARWLTQEEFHTAAVSTAMKKVFRVYQGQQPGTCMGSKRSQVSSPCSRKKPRMGQQVLDNFFRSHISTDAHSLNSAAQ

Variants of: B1
Assay: 8OG:A repair function score (normalized; synonymous = 0, nonsense = -1) (normalized log-likelihood score); higher = more repair activity (WT-like)
Settings: with 8OG:A DNA repair reporter (GFP) in HEK-293 MUTYH KO cells
Method in brief: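 Per-tile Rosace fitness scores were converted to a normalized repair function score anchored on synonymous and nonsense distributions. That scale puts synonymous medians at 0 and nonsense medians at -1. Variants with starting counts under 300 counts per million were discarded. Input came from sorting viable mCherry+ MUTYH knockout HEK-293 cells, carrying lentiviral MUTYH cDNA NNN codon-scan libraries in 10 pg/ml doxycycline and an 8OG:A GFP repair reporter, into GFP+ and GFP− bins at 72 h, three replicates per tile, followed by tile amplicon sequencing.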
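Note: cells sorted at 72 h after reporter transfection.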

Variant | 8OG:A repair function score
MRKPRAAVGSGHRKQAASQEGRQKHAKNNSQAKPSACDGLARQPEEVVLQASVSSYHLFRDVAEVTAFRGSLLSWYDQEKRDLPWRRRAEDEMDLDRRAYAVWVSEVMLQQTQVATVINYYTGWMQKWPTLQDLASASLEEVNQLWAGLGYYSRGRRLQEGARKVVEELGGHMPRTAETLQQLLPGVGRYTAGAIASIAFGQATGVVDGNVARVLCRVRAIGADPSSTLVSQQLWGLAQQLVDPARPGDFNQAAMELGATVCTPQRPLCSQCPVESLCRARQRVEQEQLLASGSLSGSPDVEECAPNTGQCHLCLPPSEPWDQTLGVVNIPRKASRKPPREESSATCVLEQPGALGAQILLVQRPNSGLLAGLWEFPSVTWEPSEQLQRKALLQELQRWAGPLPATHLRHLGEVVHTFSHIKLTYQVYGLALEGQTPVTTVPPGARWLTQEEFHTAAVSTAMKKVFRVYQGQQPGTCMGSKRSQVSSPCSRKKPRMGQQVLDNFFRSHISTDAHSLNSAAQ [F330I] | -0.18
MRKPRAAVGSGHRKQAASQEGRQKHAKNNSQAKPSACDGLARQPEEVVLQASVSSYHLFRDVAEVTAFRGSLLSWYDQEKRDLPWRRRAEDEMDLDRRAYAVWVSEVMLQQTQVATVINYYTGWMQKWPTLQDLASASLEEVNQLWAGLGYYSRGRRLQEGARKVVEELGGHMPRTAETLQQLLPGVGRYTAGAIASIAFGQATGVVDGNVARVLCRVRAIGADPSSTLVSQQLWGLAQQLVDPARPGDFNQAAMELGATVCTPQRPLCSQCPVESLCRARQRVEQEQLLASGSLSGSPDVEECAPNTGQCHLCLPPSEPWDQTLGVVNFPRKASRKPPREESSATCVLEQPGALGAQILLVQRPNSGLLAGLWEFPSVTWEPSEQLQRKALLQELQRWSGPLPATHLRHLGEVVHTFSHIKLTYQVYGLALEGQTPVTTVPPGARWLTQEEFHTAAVSTAMKKVFRVYQGQQPGTCMGSKRSQVSSPCSRKKPRMGQQVLDNFFRSHISTDAHSLNSAAQ [A400S] | -0.189
MRKPRAAVGSGHRKQAASQEGRQKHAKNNSQAKPSACDGLARQPEEVVLQASVSSYHLFRDVAEVTAFRGSLLSWYDQEKRDLPWRRRAEDEMDLDRRAYAVWVSEVMLQQTQVATVINYYTGWMQKWPTLQDLASASLEEVNQLWAGLGYYSRGRRLQEGARKVVEELGGHMPRTAETLQQLLPGVGRYTAGAIASIAFGQATGVVDGNVARVLCRVRAIGADPSSTLVSQQLWGLAQQLVDPARPGDFNQAAMELGATVCTPQRPLCSQCPVESLCRARQRVEQEQLLASGSLSGSPDVEECAPNTGQCHLCLPPSEPWDQTLGVVNFPRKASRKPPREESSATCVLEQPGALGAQILLVQRPNSGLLAGLWEFPSVTWEPSEQLQRKALLQELQRWAGPLPATHLRHLGEVVHTFSHIKLTYQVYGLALEGQTPVTTVPPGARWLTQEEFHTAAVSTYMKKVFRVYQGQQPGTCMGSKRSQVSSPCSRKKPRMGQQVLDNFFRSHISTDAHSLNSAAQ [A461Y] | -0.726
MRKPRAAVGSGHRKQAASQEGRQKHAKNNSQAKPSACDGLARQPEEVVLQASVSSYHLFRDVAEVTAFRGSLLSWYDQEKRDLPWRRRAEDEMDLDRRAYAVWVSEVMLQQTQVATVINYYTGWMQKWPTLQDLASASLEEVNQLWAGLGYLSRGRRLQEGARKVVEELGGHMPRTAETLQQLLPGVGRYTAGAIASIAFGQATGVVDGNVARVLCRVRAIGADPSSTLVSQQLWGLAQQLVDPARPGDFNQAAMELGATVCTPQRPLCSQCPVESLCRARQRVEQEQLLASGSLSGSPDVEECAPNTGQCHLCLPPSEPWDQTLGVVNFPRKASRKPPREESSATCVLEQPGALGAQILLVQRPNSGLLAGLWEFPSVTWEPSEQLQRKALLQELQRWAGPLPATHLRHLGEVVHTFSHIKLTYQVYGLALEGQTPVTTVPPGARWLTQEEFHTAAVSTAMKKVFRVYQGQQPGTCMGSKRSQVSSPCSRKKPRMGQQVLDNFFRSHISTDAHSLNSAAQ [Y152L] | -0.707
MRKPRAAVGSGHRKQAASQEGRQKHAKNNSQAKPSACDGLARQPEEVVLQASVSSYHLFRDVAEVTAFRGSLLSWYDQEKRDLPWRRRAEDEMDLDRRAYAVWVSEVMLQQTQVATVINYYTGWMQKWPTLQDLASASLEEVNQLWAGLGYYSRGRRLQEGARKVVEELGGHMPRTAETLQQLLPGVGRYTAGAIASIAFGQATGVVDGNVARVLCRVRAIGADPSSTLVSQQLWGLAQQLVDPARPGDFNQAAMELGATVCTPQRPLCSQCPVESLCRARQRVEQEQLLASGSLSGSPDVEECAPNTGQCHTCLPPSEPWDQTLGVVNFPRKASRKPPREESSATCVLEQPGALGAQILLVQRPNSGLLAGLWEFPSVTWEPSEQLQRKALLQELQRWAGPLPATHLRHLGEVVHTFSHIKLTYQVYGLALEGQTPVTTVPPGARWLTQEEFHTAAVSTAMKKVFRVYQGQQPGTCMGSKRSQVSSPCSRKKPRMGQQVLDNFFRSHISTDAHSLNSAAQ [L313T] | -0.317
MRKPRAAVGSGHRKQAASQEGRQKHAKNNSQAKPSACDGLARQPEEVVLQASVSSYHLFRDVAEVTAFRGSLLSWYDQEKRDLPWRRRAEDEMDLDRRAYAVWVSEVMLQQTQVATVINYYTGWMQKWPTLQDLASASLEEVNQLWAGLGYYSRGRRLQEGARKVVEELGGHMPRTAETLQQLLPGVGRYTAGAIASIAFGQATGVVDGNVARVLCRVRAIGADPSSTLVSQQLWGLAQQLVDPARPGDFNQAAMELGATVCTPQRPLCSQCPVESLCRARQRVEQEQLLASGSLSGSPDVEECAPNTGQCHLCLPPSEPWDQTLGVVNFPRKASRKPPREESSATCVLEQPGALGAQILLVQRPNSGLLAGLWEFPSVTWEPSEQLQRKALLQELQRWAGPLPATHLRHLGEVVHTFSHIKLTYQVYGLALEGQTPVTTVPPEARWLTQEEFHTAAVSTAMKKVFRVYQGQQPGTCMGSKRSQVSSPCSRKKPRMGQQVLDNFFRSHISTDAHSLNSAAQ [G444E] | -0.0932

From the supplement of paper PMC11908140
